Source: patent US20220324998A1 (MUSC FOUNDATION FOR RESEARCH DEVELOPMENT, published 2022)

Columns and labels:
HRAS(Q61L) = target: T1, HRAS(Q61L) (UniProt P01112 1-189, limits assumed); assay: co-IP (FLAG IP, Western blot) from HEK cells (FIG. 6)
T1 construct: HA-tagged, expressed in HEK cells; also called Q61L mutant; HA-tagged HRAS Q61L
From the text: (§1) R15m clones were expressed as CFP-FLAG fusion proteins in HEK cells along with various HA-tagged mutants of HRAS. CFP and NS1 Monobody were used as controls. CFP-FLAG and CFP-FLAG-tagged Monobodies (Mb) were immunoprecipitated, fractionated on SDSPAGE, and probed for binding to HRAS mutants. Antibodies used in Western blots are shown to the right of each panel.
(§2) R15 or R18 Monobody was expressed as CFP-FLAG fusion proteins in HEK cells along with various HA-tagged mutants of HRAS or KRAS, immunoprecipitated, and probed for binding to RAS mutants (FIGS. 1B and 1C). Additionally, various R15-derivative (R15m #) Monobody clones were expressed as CFP-FLAG fusion proteins in HEK cells along with various HA-tagged mutants of HRAS, immunoprecipitated, and probed for binding to RAS mutants (FIG. 5). R15 and R18 clones bound predominantly to Q61L, D119N, and K16N mutants with little binding to wild type (WT) or G12V mutant. K16N purifies from bacteria in a nucleotide free state. […] R15m10 binds Q61L mutants of all three RAS isoforms in addition to binding to NRAS(G12D) mutant (FIG. 6). Further R15m10 binds common oncogenic RAS mutants (FIG. 7 and FIG. 8).

NRAS(Q61L) = target: T2, NRAS(Q61L) (UniProt P01111 1-189, limits assumed); assay: as above
T2 construct: HA-tagged, expressed in HEK cells
From the text: as §1, §2

NRAS(G12D) = NRAS(G12D) (UniProt P01111 1-189, limits assumed); assay: as above
From the text: as §1, §2

HRAS(G12V) = target: T3, HRAS(G12V) (UniProt P01112 1-189); assay: FLAG IP of monobody from HEK cells co-transfected with HA-tagged RAS mutant (FIG. 11D)
T3 construct: also called G12V mutant
From the text: FIG. 11A depicts KRAS(Q61L) co-expression with NS1 and R15. FIG. 11B depicts KRAS(G12D) co-expression with NS1 and R15. FIG. 11C depicts KRAS(G13D) co-expression with NS1 and R15. FIG. 11D depicts HRAS(G12V) co-expression with NS1 and R15. FIGS. 11E and 11F depict total expression of proteins with NS1 and R15, respectively, in whole cell lysates (WCL). HEK cells were co-transfected with the indicated Mb and HA-tagged RAS mutant. Monobodies were subsequently immunoprecipitated with FLAG antibodies to purify the associated RAS mutant protein. IPs were washed extensively with buffer containing high Mg2+ and lacking nucleotide. RAS proteins were then eluted from the immune complex with buffer containing low concentrations of SDS and deoxycholate (DOC). Eluted RAS proteins were then recovered and diluted 10-fold with buffer lacking SDS and DOC. Purified RAS proteins were then normalized to equivalent levels and incubated with GST-RAF-RBD to determine the level of active GTP-loaded RAS. As indicated, NS1 purified RAS-GTP as the purified RAS proteins robustly bound GST-RAF RBD both in the absence and presence of added GTPγS. […] However, addition of GTPγS (+GTP) to the R15m10 purified RAS proteins reconstituted binding to the RAF-RBD.
HEK cells were co-transfected with the indicated Mb and HA-tagged RAS mutant. […]

Measured: binding result

B1: FLAG-tagged CFP-R15m10 Monobody (designed binder)
chain: VSSVPTKLEVVAATPTSLLISWDASSSSVSYYRITYGETGGNSPVQEFTVPGYYSTATISGLKPGVDYTITVYAVWQGVWRYVSPISINYRT
notes: also called apo-specific monobody R15m10; not shown: CFP; FLAG tag
binds: all assays above
